This experiment has as its system HIF-1α expression and VEGF secretion in MIA PaCa-2 cells. The experiment can be described thus: Western blot of HIF-1α expression and VEGF secretion under DFX hypoxia. The class given is cell-based, human. Conditions: DFX 100 μM, 50 μg/ml, 48 h. As to the method:
Cells were extracted with RIPA buffer and the supernatants were immunoprecipitated using either anti-CHC antibody, Pa65-2, mAb X-22 (Affinity), or anti-HIF-1α antibody (BD), then analyzed by immunoblotting. The signals were developed using enhanced chemiluminescence reagents (ECL) (Thermo).
For hypoxia experiments, MIA PaCa-2 cells were grown in a Ruskinn Hypoxic Chamber (APM-50D, 18 Astec, Japan) and treated with either 1% O2, 5% CO2 for 18 h, or given DFX, deferoxamine (100 μM, Sigma) treatment for 5 or 16 h. For proteasome inhibitor treatment, MG132 (10 μM, Sigma) was added to culture medium then incubated 5 to 17 h.
In general terms: A western blot detects proteins with antibodies after separation by electrophoresis.

B1: Pa65-2: monoclonal antibody that recognizes human clathrin heavy chain (CHC); VH SEQ ID NO: 2, VL SEQ ID NO: 3 (antibody, listed as Homo sapiens, V domains shown)
VH: EVKLVESGGGLVKPGGSLNISCAASGFTFSNYVMSWVRQTPEKRLEWVATISSGDNYMYYPDSVKGRFTISSDNAKNTLFLQMSSLRSEDTALYYCARHFDNYEGNSMDYWGQGTSVTVSSAKTTPPSDYPLA
VL: DIVLTQSPATLSVTPGDSVSLSCRASQSIRSNLHWYQQKSHESPRLLIKYASQSISGIPSRFSGSGSGTDFILSINSVATEDFGVYFCQQSNSWPLTFGAGTKLELKRADAAPTVS
As for B1, the “hypoxia-induced HIF-1α expression” value is on record as “suppressed”. For the setting “culture media”, the VEGF secretion entry is recorded as “suppressed”.

The values are drawn from patent publication US8969530B2, “Anti-clathrin heavy chain monoclonal antibody for inhibition of tumor angiogenesis and growth and application thereof” (Academia Sinica, priority 2011, dated 2015).
